Test results as given in patent publication US20150344570A1 (published 2015).

T1: FcγRIIa H (human, UniProt P12318 34-217)
T1 construct: extracellular domain; also called FcγRIIa type H; 2aH
T1 sequence (looked up): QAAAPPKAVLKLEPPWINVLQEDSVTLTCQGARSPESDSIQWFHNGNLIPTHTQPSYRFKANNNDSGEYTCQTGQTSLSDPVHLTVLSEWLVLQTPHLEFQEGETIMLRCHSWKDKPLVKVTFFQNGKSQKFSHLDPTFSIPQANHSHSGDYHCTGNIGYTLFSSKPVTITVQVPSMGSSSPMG

T2: FcγRIIb (human, UniProt P31994 43-217)
T2 construct: extracellular domain; also called 2b; FcgRIIb
T2 sequence (looked up): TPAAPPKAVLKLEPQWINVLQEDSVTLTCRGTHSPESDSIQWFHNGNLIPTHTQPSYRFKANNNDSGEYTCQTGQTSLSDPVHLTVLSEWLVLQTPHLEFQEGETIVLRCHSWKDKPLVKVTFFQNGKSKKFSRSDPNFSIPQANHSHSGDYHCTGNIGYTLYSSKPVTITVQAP


Legend:
FcγRIIa H [1] = molecular target: T1, FcγRIIa H; assay: ratio of He/Con_2aH to He/Con_2b (FcγRIIb); SPR
FcγRIIa H [2] = molecular target: T1, FcγRIIa H; assay: SPR (Biacore), captured antibody, FcγR as analyte; GpH7-A5/GpH7-B3/GpL16-k0 = 100
Experimental: (§1) The heterodimerized antibodies He Abs in which one of the H chains was introduced with an alteration were assayed for their binding activities to each activating FcγR and inhibitory FcγR according to the method described in Example 4. […] The activating FcγRs in FIGS. 26, 27, 28, and 29 are FcγRIa, FcγRIIa (R), FcγRIIa (H), and FcγRIIIa, respectively.
(§2) Analysis of interaction between objective antibody and the FcγR was carried out using Biacore T100 (GE Healthcare). HBS-EP+ (GE Healthcare) was used as the running buffer, and the measurement temperature was set to 25° C. Chips produced by immobilizing the antigen peptide by the amine coupling method to a Series S Sencor Chip CM5 (GE Healthcare), or alternatively, chips produced by allowing preliminarily biotinylated antigen peptides to interact with and immobilize onto a Series S Sensor Chip SA (certified) (GE Healthcare) were used. Antibodies of interest were captured onto an antigen peptide-immobilized chip, and allowed to interact to each FcγR diluted with running buffer. To regenerate and repeatedly use the chip, the antibodies captured on the chip were washed off by reacting 10 mM glycine-HCl, pH 1.5.

FcγRIIb = molecular target: T2, FcγRIIb; assay: as above
Experimental: as §1, §2

Binder | He_2aH/2b (IIaH/IIb ratio) (FcγRIIa H [1]) | He/Con_2aH (relative binding) (FcγRIIa H [2]) | He/Con_2b (relative binding) (FcγRIIb)
GpH7-A5/GpH7-B3 variant D270_20W/GpL16-k0 (antibody, human IgG1, kappa, Heterodimerized anti-glypican-3 IgG1 (He Ab); mutation in the B3 H chain only; also called He Ab) heavy 1: not shown heavy 2: not shown light: DIVMTQSPLSLPVTPGEPASISCQASESLVHSNRNTYLHWYLQKPGQSPQLLIYKVSNRFSGVPDRFSGSGSGTDFTLKISRVEAEDVGVYYCSQNTHVPPTFGQGTKVEIERTVAAPSVFIFPPSDEQLKSGTASVVCLLNNFYPREAKVQWKVDNALQSGNSQESVTEQDSKDSTYSLSSTLTLSKADYEKHKVYACEVTHQGLSSPVTKSFNRGEC | 1.74 | 60.2% | 34.7%
GpH7-A5/GpH7-B3 variant E269_03V/GpL16-k0 (antibody, human IgG1, kappa, Heterodimerized anti-glypican-3 IgG1 (He Ab); mutation in the B3 H chain only; also called He Ab) heavy 1: not shown heavy 2: not shown light: DIVMTQSPLSLPVTPGEPASISCQASESLVHSNRNTYLHWYLQKPGQSPQLLIYKVSNRFSGVPDRFSGSGSGTDFTLKISRVEAEDVGVYYCSQNTHVPPTFGQGTKVEIERTVAAPSVFIFPPSDEQLKSGTASVVCLLNNFYPREAKVQWKVDNALQSGNSQESVTEQDSKDSTYSLSSTLTLSKADYEKHKVYACEVTHQGLSSPVTKSFNRGEC | 1.49 | 67.5% | 45.1%
GpH7-A5/GpH7-B3 variant E269_02A/GpL16-k0 (antibody, human IgG1, kappa, Heterodimerized anti-glypican-3 IgG1 (He Ab); mutation in the B3 H chain only; also called He Ab) heavy 1: not shown heavy 2: not shown light: DIVMTQSPLSLPVTPGEPASISCQASESLVHSNRNTYLHWYLQKPGQSPQLLIYKVSNRFSGVPDRFSGSGSGTDFTLKISRVEAEDVGVYYCSQNTHVPPTFGQGTKVEIERTVAAPSVFIFPPSDEQLKSGTASVVCLLNNFYPREAKVQWKVDNALQSGNSQESVTEQDSKDSTYSLSSTLTLSKADYEKHKVYACEVTHQGLSSPVTKSFNRGEC | 1.56 | 77.8% | 49.9%

The next lines start with the values.

He_2aH/2b (IIaH/IIb ratio) (FcγRIIa H [1]) | He/Con_2aH (relative binding) (FcγRIIa H [2]) | He/Con_2b (relative binding) (FcγRIIb) | Binder
1.57 | 67.4% | 42.9% | GpH7-A5/GpH7-B3 variant E269_08L/GpL16-k0 (antibody, human IgG1, kappa, Heterodimerized anti-glypican-3 IgG1 (He Ab); mutation in the B3 H chain only; also called He Ab) heavy 1: not shown heavy 2: not shown light: DIVMTQSPLSLPVTPGEPASISCQASESLVHSNRNTYLHWYLQKPGQSPQLLIYKVSNRFSGVPDRFSGSGSGTDFTLKISRVEAEDVGVYYCSQNTHVPPTFGQGTKVEIERTVAAPSVFIFPPSDEQLKSGTASVVCLLNNFYPREAKVQWKVDNALQSGNSQESVTEQDSKDSTYSLSSTLTLSKADYEKHKVYACEVTHQGLSSPVTKSFNRGEC
1.58 | 73.6% | 46.7% | GpH7-A5/GpH7-B3 variant E269_06M/GpL16-k0 (antibody, human IgG1, kappa, Heterodimerized anti-glypican-3 IgG1 (He Ab); mutation in the B3 H chain only; also called He Ab) heavy 1: not shown heavy 2: not shown light: DIVMTQSPLSLPVTPGEPASISCQASESLVHSNRNTYLHWYLQKPGQSPQLLIYKVSNRFSGVPDRFSGSGSGTDFTLKISRVEAEDVGVYYCSQNTHVPPTFGQGTKVEIERTVAAPSVFIFPPSDEQLKSGTASVVCLLNNFYPREAKVQWKVDNALQSGNSQESVTEQDSKDSTYSLSSTLTLSKADYEKHKVYACEVTHQGLSSPVTKSFNRGEC
1.52 | 66.6% | 43.9% | GpH7-A5/GpH7-B3 variant E269_07I/GpL16-k0 (antibody, human IgG1, kappa, Heterodimerized anti-glypican-3 IgG1 (He Ab); mutation in the B3 H chain only; also called He Ab) heavy 1: not shown heavy 2: not shown light: DIVMTQSPLSLPVTPGEPASISCQASESLVHSNRNTYLHWYLQKPGQSPQLLIYKVSNRFSGVPDRFSGSGSGTDFTLKISRVEAEDVGVYYCSQNTHVPPTFGQGTKVEIERTVAAPSVFIFPPSDEQLKSGTASVVCLLNNFYPREAKVQWKVDNALQSGNSQESVTEQDSKDSTYSLSSTLTLSKADYEKHKVYACEVTHQGLSSPVTKSFNRGEC
1.52 | 68.5% | 45% | GpH7-A5/GpH7-B3 variant E269_04F/GpL16-k0 (antibody, human IgG1, kappa, Heterodimerized anti-glypican-3 IgG1 (He Ab); mutation in the B3 H chain only; also called He Ab) heavy 1: not shown heavy 2: not shown light: DIVMTQSPLSLPVTPGEPASISCQASESLVHSNRNTYLHWYLQKPGQSPQLLIYKVSNRFSGVPDRFSGSGSGTDFTLKISRVEAEDVGVYYCSQNTHVPPTFGQGTKVEIERTVAAPSVFIFPPSDEQLKSGTASVVCLLNNFYPREAKVQWKVDNALQSGNSQESVTEQDSKDSTYSLSSTLTLSKADYEKHKVYACEVTHQGLSSPVTKSFNRGEC
